Experimental data from US20230087785A1, “Leucine-Rich Repeat Kinase 2 Allosteric Modulators” (VIB VZW, priority 2020, published 2023).
Numbering of substitutions follows the chain as printed.

T1: LRRK2 RocCOR domain construct (human, UniProt Q5S007 1334-1840)
T1 construct: A second construct (residues 1293-1840, N-terminal His6-MBP) was used in certain screening experiments; not shown: N-terminal Twin-Strep-tag; C-terminal His10-tag
T1 sequence: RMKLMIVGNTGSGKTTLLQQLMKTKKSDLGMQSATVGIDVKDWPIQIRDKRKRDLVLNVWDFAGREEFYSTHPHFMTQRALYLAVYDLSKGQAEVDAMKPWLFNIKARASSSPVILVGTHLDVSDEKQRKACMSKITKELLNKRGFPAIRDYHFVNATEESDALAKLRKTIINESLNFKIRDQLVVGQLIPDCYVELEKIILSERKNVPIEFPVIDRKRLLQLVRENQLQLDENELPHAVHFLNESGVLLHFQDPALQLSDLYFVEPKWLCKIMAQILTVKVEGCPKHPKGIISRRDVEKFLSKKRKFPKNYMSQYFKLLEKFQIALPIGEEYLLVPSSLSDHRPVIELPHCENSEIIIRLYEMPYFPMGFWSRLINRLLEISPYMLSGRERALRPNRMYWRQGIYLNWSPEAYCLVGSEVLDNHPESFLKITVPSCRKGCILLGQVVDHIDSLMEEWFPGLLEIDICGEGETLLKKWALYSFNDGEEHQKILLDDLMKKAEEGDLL

T2: LRRK2 Roc domain construct (human, UniProt Q5S007 1329-1520)
T2 construct: not shown: N-terminal His6-tag of pET-28a
T2 sequence: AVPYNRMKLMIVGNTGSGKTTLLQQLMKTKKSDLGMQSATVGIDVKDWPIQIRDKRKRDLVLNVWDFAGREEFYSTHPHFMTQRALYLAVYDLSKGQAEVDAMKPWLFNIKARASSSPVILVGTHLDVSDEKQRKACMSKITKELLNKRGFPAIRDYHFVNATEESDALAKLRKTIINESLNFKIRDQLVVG

T3: LRRK2 kinase-WD40 domain construct (human, UniProt Q5S007 1876-2527)
T3 construct: also called K-WD40; not shown: N-terminal His-tag (pFastBac)
T3 sequence: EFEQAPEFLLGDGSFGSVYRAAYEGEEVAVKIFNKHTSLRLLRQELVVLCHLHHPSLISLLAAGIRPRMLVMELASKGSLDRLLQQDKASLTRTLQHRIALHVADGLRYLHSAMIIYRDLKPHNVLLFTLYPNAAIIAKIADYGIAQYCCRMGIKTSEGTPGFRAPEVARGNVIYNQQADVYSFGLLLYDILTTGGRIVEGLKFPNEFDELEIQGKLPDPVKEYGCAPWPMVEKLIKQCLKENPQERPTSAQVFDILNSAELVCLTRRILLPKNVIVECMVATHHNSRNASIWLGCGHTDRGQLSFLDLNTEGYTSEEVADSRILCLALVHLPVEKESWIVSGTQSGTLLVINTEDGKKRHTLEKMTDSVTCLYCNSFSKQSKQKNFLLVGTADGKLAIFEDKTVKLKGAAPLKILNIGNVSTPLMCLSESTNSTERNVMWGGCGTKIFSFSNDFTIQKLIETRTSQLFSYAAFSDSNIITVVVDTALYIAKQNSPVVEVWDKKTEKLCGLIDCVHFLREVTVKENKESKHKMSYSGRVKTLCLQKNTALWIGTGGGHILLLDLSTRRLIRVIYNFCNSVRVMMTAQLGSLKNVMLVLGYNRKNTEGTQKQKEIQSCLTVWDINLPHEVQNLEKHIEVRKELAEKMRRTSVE

B1: Nb39 (CA14134) (VHH)
VHH: QVQLVESGGGLVQAGGSLRLSCRASGGTFSTYAMGWFRQVPGKERETVAAVKWSGDMTYYADSVKGRFTISRDNAKNTVYLQMNSLRPEDTAVYYCAARRGLSYYRGPSEYDYWGQGTQVTVSS
B2: Nb17 (CA13606) (VHH)
VHH: QVQLVESGGGLVQPGGSLRLSCAASGSNIGYMAWYRQAPGSQRELVARIASGGSANYADSVKGRFTISRDNVKNTVYLHMNSLKPVDTAVYYCHADAWYNSRWSDYWGQGTQVTVSS
B3: Nb36 (CA14130) (VHH)
VHH: QVQLVESGGGLVQPGGSLRLSCAASGSIRSITTSAWFRQPPGKQRELVAGISSGTSTNYADSVKGRFTISRDNAKNTVYLQMNSLKPEDTAVYYCHVWISGTWYSGQGTQVTVSS
B4: Nb38 (CA14133) (VHH)
VHH: B3 VHH with T32A, F37Y, S56T, V97A, Y104I
B5: Nb23 (CA13612)-GFP fusion (VHH)
VHH: QVQLVESGGGLVQAGGSLRLSCAASGRTFSRYTMGWFRQAPGKDREFVARITTSGAVTTYADSAKGRFTISRDNAKNTVYLQMNTLKPEDTAVYYCAAGQGQLSSQSRFVDYWGQGTQVTVSS
notes: expressed in cells as intrabody; also called GFP-Nb23; fluobody Nb23; not shown: enhanced GFP fused to the C-terminus of the Nb (pEGFP-N1)
B6: Nb22 (CA13611)-GFP fusion (VHH)
VHH: QVQLVESGGGLVQAGGSLRLSCAASGRTFSSYTMGWFRQAPGKEREFVAAIRWSGGSTYYADSVKGRFTISRDNAKNTVYLQMNSLKPEDTAVYYCAASDRGGFIATSGGWMDYWGKGTQVTVSS
notes: expressed in cells as intrabody; also called GFP-Nb22; fluobody Nb22; not shown: enhanced GFP fused to the C-terminus of the Nb (pEGFP-N1)
B7: Nb37 (CA14131) (VHH)
VHH: QVQLVESGGGLVQPGGSLRLSCAASGSVFSTNTMAWFRQAPGKQREWVGGITPGGFTNYINSVKGRFTISRDNANNTIYLQMSSLRPEDTAVYYCNTLSRMALWGQGTQVTVSS
B8: Nb35 (CA16072) (VHH)
VHH: QVQLVESGGGLVQPGGSLRLSCAASGFPFSTYYMSWVRQAPGKGLEWVSAISPGGDTAYADSVKDRFTISRDSAKNTVYLQMSSLKPEDTAVYYCAAVRFLRAPDLTEKRLYEYWGQGTQVTVSS
B9: Nb3 (CA12614) (VHH)
VHH: QVQLVESGGGLVQPGGSLRLSCAASGSIFRRNAMGWYRQVTGKERELVAGITSGGYTNYRDFVKGRFTISRDNAKNTVYLQMNNLKPEDTAVYYCNLLSEMLQTVWGQGTQVTVSS

biological target: T4, Full-length human Leucine-rich repeat kinase 2 (LRRK2), N-terminal Strep/Flag (SF) tagged (human, UniProt Q5S007 1-2527); assay: BLI; Nb on LRRK2 trapped on streptavidin sensor via biotinylated Nb40; steady-state fit
T4 construct: Purified from HEK293T cells in presence of GDP or GTPγS; also called FL LRRK2; FL-LRRK2
T4 sequence (Q5S007 other isoform, or with tags, fused parts or gaps limits assumed): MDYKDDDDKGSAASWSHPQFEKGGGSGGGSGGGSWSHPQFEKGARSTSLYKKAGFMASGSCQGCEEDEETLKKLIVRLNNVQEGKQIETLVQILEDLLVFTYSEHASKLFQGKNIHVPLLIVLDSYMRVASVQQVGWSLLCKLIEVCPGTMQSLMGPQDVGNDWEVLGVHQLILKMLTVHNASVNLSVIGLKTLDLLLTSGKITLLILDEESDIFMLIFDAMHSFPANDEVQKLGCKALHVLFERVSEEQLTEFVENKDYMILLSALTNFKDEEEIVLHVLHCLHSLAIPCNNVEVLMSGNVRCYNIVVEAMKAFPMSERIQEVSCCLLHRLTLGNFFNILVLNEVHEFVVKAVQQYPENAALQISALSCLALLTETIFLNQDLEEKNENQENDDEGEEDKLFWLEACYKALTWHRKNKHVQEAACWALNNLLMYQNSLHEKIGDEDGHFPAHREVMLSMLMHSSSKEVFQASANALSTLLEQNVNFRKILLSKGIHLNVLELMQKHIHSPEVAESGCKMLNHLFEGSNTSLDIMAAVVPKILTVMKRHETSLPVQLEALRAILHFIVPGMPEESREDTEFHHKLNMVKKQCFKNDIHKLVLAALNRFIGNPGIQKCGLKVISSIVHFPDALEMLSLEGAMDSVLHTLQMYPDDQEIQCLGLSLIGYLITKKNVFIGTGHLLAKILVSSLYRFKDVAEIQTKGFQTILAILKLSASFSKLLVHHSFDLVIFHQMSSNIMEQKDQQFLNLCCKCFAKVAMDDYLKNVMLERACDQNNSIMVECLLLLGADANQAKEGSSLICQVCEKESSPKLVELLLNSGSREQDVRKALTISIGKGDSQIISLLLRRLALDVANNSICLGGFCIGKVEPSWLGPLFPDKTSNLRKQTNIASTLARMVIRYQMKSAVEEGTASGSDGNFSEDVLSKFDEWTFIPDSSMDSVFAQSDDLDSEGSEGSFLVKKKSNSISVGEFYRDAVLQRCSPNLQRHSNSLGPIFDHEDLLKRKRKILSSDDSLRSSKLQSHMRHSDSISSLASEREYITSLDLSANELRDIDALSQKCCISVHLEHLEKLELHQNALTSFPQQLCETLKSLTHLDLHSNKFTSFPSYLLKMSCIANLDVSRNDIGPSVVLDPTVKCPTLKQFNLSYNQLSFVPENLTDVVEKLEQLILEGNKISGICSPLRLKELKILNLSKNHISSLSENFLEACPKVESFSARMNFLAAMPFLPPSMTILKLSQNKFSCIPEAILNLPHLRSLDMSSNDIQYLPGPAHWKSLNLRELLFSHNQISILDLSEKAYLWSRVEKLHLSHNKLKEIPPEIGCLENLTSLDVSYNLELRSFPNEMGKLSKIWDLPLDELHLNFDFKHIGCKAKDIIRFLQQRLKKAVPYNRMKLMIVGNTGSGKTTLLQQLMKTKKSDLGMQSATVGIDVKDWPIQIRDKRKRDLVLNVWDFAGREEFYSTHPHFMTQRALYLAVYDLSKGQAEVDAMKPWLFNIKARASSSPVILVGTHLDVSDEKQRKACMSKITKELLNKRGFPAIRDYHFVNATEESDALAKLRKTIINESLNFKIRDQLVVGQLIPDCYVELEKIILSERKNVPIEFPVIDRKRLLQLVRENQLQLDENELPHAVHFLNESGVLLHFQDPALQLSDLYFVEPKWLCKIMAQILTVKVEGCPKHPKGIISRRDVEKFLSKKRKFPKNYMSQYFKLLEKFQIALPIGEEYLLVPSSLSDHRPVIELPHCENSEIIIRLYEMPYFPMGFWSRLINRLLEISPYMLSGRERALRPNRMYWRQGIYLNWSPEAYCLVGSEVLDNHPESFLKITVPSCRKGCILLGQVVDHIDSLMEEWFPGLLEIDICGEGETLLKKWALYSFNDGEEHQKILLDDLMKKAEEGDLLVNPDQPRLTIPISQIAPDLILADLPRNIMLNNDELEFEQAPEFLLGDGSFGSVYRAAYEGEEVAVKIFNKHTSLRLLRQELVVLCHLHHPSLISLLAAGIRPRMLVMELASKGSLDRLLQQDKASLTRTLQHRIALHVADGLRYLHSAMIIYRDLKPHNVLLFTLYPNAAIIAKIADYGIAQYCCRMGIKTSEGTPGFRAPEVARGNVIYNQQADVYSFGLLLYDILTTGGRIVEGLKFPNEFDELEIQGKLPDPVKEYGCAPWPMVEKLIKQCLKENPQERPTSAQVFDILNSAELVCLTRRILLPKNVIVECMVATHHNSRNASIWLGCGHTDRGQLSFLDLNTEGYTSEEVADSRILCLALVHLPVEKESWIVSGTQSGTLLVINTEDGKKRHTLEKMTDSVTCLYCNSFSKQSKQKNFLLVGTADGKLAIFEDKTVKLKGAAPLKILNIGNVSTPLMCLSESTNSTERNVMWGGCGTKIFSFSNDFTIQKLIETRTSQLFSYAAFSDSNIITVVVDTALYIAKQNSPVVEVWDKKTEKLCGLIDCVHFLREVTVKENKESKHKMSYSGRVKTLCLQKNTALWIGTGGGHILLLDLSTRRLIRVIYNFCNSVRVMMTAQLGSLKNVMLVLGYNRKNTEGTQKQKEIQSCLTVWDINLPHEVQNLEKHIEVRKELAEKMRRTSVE
Procedure: To determine the binding affinity (dissociation constant KD) of the ten Nbs for LRRK2, two methods were used in parallel: microscale thermophoresis (MST) and bio-layer interferometry (BLI). For the MST experiment, we site-specifically labeled the ten Nbs with a m-TAM RA fluorophore at its C-terminus, using sortase-mediated coupling, and then titrated increasing amounts of full-length LRRK2 to these Nbs (FIGS. 13A-13E).
Biolayer interferometry (BLI) measurements were performed using an Octet Red96 (Forte Bio, Inc.) system in a buffer containing 50 mM HEPES pH 8.0, 150 mM NaCl, 10 mM MgCl₂, 5% glycerol, 0.1% BSA, 0.05% Tween, at 25° C. and with shaking speed 1000 rpm. […] The biotinylated Nbs were first loaded on pre-equilibrated SA biosensors at a concentration of 5 μg/mL. This Nb-loaded sensor was then used to trap FL-LRRK2 from a 50 nM LRRK2 solution. […] All experiments were performed in triplicate.

Kd | Binder
21 nM | B1
11 nM | B2
51 nM | B3
86 nM | B4

biological target: T5, endogenous mouse LRRK2 (RAW264.7 cells) (mouse, UniProt Q5S006 1-2527); assay: immunofluorescence colocalisation of GFP-Nb and LRRK2 in RAW264.7 cells
T5 construct: also called endogenous LRRK2
T5 sequence (Q5S006 whole entry): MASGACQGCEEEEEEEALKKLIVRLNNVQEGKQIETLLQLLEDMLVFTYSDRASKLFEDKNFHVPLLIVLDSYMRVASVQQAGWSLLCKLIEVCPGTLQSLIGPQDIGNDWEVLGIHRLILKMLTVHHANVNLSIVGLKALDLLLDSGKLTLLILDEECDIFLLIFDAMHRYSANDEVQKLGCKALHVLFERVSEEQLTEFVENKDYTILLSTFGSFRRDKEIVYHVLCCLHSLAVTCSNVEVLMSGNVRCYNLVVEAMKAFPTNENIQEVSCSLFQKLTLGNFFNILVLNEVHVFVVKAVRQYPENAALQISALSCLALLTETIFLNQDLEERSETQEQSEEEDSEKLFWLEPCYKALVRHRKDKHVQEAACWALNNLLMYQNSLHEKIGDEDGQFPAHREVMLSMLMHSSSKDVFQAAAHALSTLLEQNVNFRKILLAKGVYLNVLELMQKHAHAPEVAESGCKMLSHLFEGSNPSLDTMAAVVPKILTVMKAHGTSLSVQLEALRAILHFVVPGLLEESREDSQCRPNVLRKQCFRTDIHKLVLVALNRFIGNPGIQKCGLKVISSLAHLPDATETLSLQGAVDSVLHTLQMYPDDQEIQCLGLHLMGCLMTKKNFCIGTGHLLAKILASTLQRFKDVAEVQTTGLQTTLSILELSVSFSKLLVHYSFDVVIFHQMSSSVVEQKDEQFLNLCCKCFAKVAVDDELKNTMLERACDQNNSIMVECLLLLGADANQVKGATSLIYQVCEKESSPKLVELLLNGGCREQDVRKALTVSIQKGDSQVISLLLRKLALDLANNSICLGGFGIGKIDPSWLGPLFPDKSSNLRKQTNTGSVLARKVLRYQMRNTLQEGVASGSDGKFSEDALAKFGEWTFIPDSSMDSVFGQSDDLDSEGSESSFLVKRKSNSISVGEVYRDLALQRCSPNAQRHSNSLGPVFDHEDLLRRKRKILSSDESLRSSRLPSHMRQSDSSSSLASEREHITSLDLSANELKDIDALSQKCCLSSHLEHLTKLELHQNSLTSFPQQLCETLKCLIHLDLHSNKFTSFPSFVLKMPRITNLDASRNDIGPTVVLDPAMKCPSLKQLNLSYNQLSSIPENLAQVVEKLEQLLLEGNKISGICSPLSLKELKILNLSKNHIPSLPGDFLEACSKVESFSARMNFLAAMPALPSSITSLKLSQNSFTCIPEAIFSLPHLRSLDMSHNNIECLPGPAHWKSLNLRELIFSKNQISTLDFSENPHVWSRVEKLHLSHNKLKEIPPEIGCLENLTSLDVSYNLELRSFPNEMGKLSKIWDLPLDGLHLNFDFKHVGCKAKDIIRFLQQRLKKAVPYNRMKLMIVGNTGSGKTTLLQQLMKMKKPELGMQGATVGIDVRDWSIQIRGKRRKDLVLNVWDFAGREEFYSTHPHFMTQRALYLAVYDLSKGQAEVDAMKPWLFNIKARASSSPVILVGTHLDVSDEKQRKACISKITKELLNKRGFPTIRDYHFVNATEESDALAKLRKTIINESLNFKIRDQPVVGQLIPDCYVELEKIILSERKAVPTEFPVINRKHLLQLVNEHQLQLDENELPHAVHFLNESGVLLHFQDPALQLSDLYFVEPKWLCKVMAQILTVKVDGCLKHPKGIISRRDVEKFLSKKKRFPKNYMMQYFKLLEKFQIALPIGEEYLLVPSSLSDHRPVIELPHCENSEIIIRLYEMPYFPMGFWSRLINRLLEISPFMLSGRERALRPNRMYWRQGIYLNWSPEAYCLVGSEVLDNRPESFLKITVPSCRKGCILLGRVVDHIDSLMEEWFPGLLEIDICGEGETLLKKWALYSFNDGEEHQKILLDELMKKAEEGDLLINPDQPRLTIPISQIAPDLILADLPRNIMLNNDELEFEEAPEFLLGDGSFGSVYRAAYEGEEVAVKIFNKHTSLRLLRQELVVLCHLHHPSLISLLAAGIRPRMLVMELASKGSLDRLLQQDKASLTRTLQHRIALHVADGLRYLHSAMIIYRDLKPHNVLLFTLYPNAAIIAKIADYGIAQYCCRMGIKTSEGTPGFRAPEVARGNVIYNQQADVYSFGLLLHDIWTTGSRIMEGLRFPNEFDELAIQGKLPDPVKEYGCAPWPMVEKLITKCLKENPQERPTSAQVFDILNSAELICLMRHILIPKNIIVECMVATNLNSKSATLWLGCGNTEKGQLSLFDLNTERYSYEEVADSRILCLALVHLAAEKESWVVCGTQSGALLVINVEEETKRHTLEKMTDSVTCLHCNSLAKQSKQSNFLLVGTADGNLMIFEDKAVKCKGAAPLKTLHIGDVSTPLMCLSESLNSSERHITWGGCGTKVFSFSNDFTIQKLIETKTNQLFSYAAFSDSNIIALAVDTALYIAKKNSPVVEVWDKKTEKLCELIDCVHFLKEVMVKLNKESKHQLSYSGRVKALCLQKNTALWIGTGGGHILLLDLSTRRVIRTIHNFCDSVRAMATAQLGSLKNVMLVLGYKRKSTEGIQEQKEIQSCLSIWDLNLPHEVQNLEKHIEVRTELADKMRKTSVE
Excerpt: To test whether Nbs can trace and visualize endogenous LRRK2 in fixed cells, we generated green fluorescent protein (GFP)-Nb fusions (fluobodies) as described before. Recently, it was shown that LRRK2 is recruited to phagosomes upon induction of phagocytosis in immune cells. Therefore, RAW264.7 cells were transfected with these fluobodies and treated with killed yeast bioparticles “zymosan” to induce phagocytosis.
RAW264.7 cells (ATCC® SC-6003™) were transfected with peGFP-Nb constructs using JetOPTIMUS (Polyplus transfection) for 24 hrs and then stimulated with Zymosan particles (Sigma Aldrich) for 30 mins ([…]). Immunostaining for LRRK2 was performed as reported before. Briefly, cells fixed with 4% (w/v) paraformaldehyde for 30 min, followed by treatment with 100% EtOH at −20° C. Sampled were permeabilized with PBS/0.5% Triton X-100 and blocked with 3% BSA. Primary antibodies (rabbit anti-LRRK2, c41-2, Abcam and mouse anti-GFP, G6539, Sigma Aldrich) were diluted in PBS containing 3% BSA and 0.5% Triton X-100 and incubated overnight at 4° C. […] Cells were washed twice with 1×PBS and mounted with Fluroshield antifade reagent with DAPI (SigmaAldrich). Images were acquired on Zeiss LSM800 confocal laser scanning microscope. Image analysis of z-scan was done using the Zeiss microscope software ZEN.

binding result | Binder
binds | B5
binds | B6

biological target: T4, Full-length human Leucine-rich repeat …; assay: MST; LRRK2 titrated to m-TAMRA-labelled Nb, 500 µM GDP
Procedure: Microscale thermophoresis (MST) experiments were performed for determining equilibrium binding affinities (KD) of Nbs binding to FL-LRRK2. Therefore, Nb were site-specifically labelled at their C-terminus with m-TAMRA, using Sortase-mediated peptide exchange. The Nbs were recloned into a pHEN29 vector which is subsequently used to express and purify the Nbs with a C-terminal LPETGG-His₆-EPEA tag. Exchange of the latter peptide with an m-TAMRA-labeled GGGYK peptide (GenicBio, Shanghai, China) was performed using Sortase, and unlabeled Nb and unincorporated peptide were removed using a Ni-NTA and SEC purification step, respectively. […] After incubation at 4° C. for 30 mins, samples were loaded in capillaries and measurements were performed at 25° C. using 50-70% LED power and 80% laser intensity (laser on-time: 30 s, laser off-time: 5 s). All experiments were performed in triplicate.

Kd | Binder
79 nM | B1
67 nM | B2
78 nM | B3
48 nM | B4

biological target: T6, LRRK2 COR-B construct (C-terminal part of the COR domain), His6-MBP tagged (human, UniProt Q5S007 1672-1840); assay: ELISA, purified Nb on coated domain constructs
T6 construct: also called (MBP-)COR-B; not shown: N-terminal His6-MBP-tag of pDEST-566
Excerpt: (§1) We recombinantly expressed and purified the RocCOR, Roc, COR-B and kinase-WD40 (K-WD40) domain constructs of LRRK2 (FIG. 7). Subsequently, we performed an ELISA in which all these domain constructs were coated in parallel next to each other in the same ELISA plate, and where we subsequently detected binding of the 42 purified Nbs. […] To enrich in Nbs directed against the Roc domain we specifically included a selection step with either Roc-GTPγS or Roc-GDP.

binding result | Binder
no binding | B1
no binding | B2
no binding | B7
no binding | B3
no binding | B4

biological target: T1, LRRK2 RocCOR domain construct; assay: ELISA, purified Nb on coated domain constructs
Excerpt: as §1

binding result | Binder
no binding | B1
no binding | B2
no binding | B7
no binding | B3
no binding | B4

biological target: T2, LRRK2 Roc domain construct; assay: ELISA, purified Nb on coated domain constructs
Excerpt: as §1

binding result | Binder
no binding | B1
no binding | B2
no binding | B7
no binding | B3
no binding | B4

biological target: T3, LRRK2 kinase-WD40 domain construct; assay: ELISA, purified Nb on coated domain constructs
Excerpt: as §1

binding result | Binder
no binding | B1
no binding | B2
no binding | B7
no binding | B3
no binding | B4

biological target: T6, LRRK2 COR-B construct (C-terminal part …); assay: ELISA, antigen coated on the plate, purified Nb detected via its EPEA tag
Procedure, shortened: (§2)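 The RocCOR, Roc, COR-B and kinase-WD40 constructs were coated side by side on one ELISA plate. Binding of each purified nanobody to every coated construct was then detected.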

binding result | Binder
no binding (tested: not given) | B8

biological target: T1, LRRK2 RocCOR domain construct; assay: as above
Procedure, shortened: as §2

binding result | Binder
no binding (tested: not given) | B8

biological target: T2, LRRK2 Roc domain construct; assay: as above
Procedure, shortened: as §2

binding result | Binder
no binding (tested: not given) | B9

biological target: T3, LRRK2 kinase-WD40 domain construct; assay: as above
Procedure, shortened: as §2

binding result | Binder
no binding (tested: not given) | B8
no binding (tested: not given) | B9
